Assay [1] addresses T1, human CD47 protein (human, UniProt Q08722 19-139, limits assumed).
T1 construct: also called human CD47 antigen
Put plainly: ELISA on human CD47 protein, antibody 15 ug/ml. For orientation: In an ELISA, binding on a coated surface is turned into a signal by an enzyme label.

Assay [2] deals with T1, human CD47 protein. Description: ELISA on human CD47 protein, antibody 45 ug/ml.
The target in assay [3] is T1, human CD47 protein. Put plainly: ELISA on human CD47 protein, antibody 1.67E+00 ug/ml.
In assay [4] the target is T1, human CD47 protein. Description: ELISA on human CD47 protein, antibody 1.85E-01 ug/ml.
In assay [5] the target is T1, human CD47 protein. Description: ELISA on human CD47 protein, antibody 2.06E-02 ug/ml.
Assay [6] deals with T1, human CD47 protein. Description: ELISA on human CD47 protein, antibody 2.29E-03 ug/ml.
In assay [7] the target is T1, human CD47 protein. Description: ELISA on human CD47 protein, antibody 5.00E+00 ug/ml.
Assay [8] concerns the target T1, human CD47 protein. Put plainly: ELISA on human CD47 protein, antibody 5.56E-01 ug/ml.
In assay [9] the target is T1, human CD47 protein. Put plainly: ELISA on human CD47 protein, antibody 6.17E-02 ug/ml.
The target of assay [10] is T1, human CD47 protein. Put plainly: ELISA on human CD47 protein, antibody 6.86E-03 ug/ml.
The target of assay [11] is T1, human CD47 protein. Put plainly: ELISA on human CD47 protein, antibody 7.62E-04 ug/ml.
Assay [12] deals with T1, human CD47 protein. Description: ELISA on human CD47 protein, antibody 0 ug/ml (blank).
For assay [13], the target named is T1, human CD47 protein. Put plainly: ELISA on human CD47 protein, OD450nm against log Ab conc; EC50 row of the table drawn under the plot; the curve has no lower plateau in the range shown.

Our source for the ELISA signal and EC50 values is patent publication US20220204613A1 (D 10 THERAPEUTICS, published 2022).

T1 sequence (Q08722 19-139 limits assumed): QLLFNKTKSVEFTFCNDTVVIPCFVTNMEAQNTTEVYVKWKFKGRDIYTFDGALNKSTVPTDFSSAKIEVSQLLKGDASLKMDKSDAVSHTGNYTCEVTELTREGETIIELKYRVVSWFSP

B1: 32G8H6 (antibody, V domains shown)
VH: EVQLQQSGPELVKPGASVKLSCKASGYTFTSSVIHWVKQKPGQGLEWLGYINPYSDGTKFNEKCKIKATLTSDKSSSTAYMELSSLTSEDSAVYYCARGLIGTRYDSWFAYWGQGTLVTVSA
VL: DIQMTQNGSSLSASLGDRVTISCRTSQDINNYLNWYQQKQDGTVKLLIYYTSRLHSGVPSRFSGSGSGTDYSLTIRNLEQEDIATYFCQQGNTLPYTFGGGTKLEIK
notes: Mouse hybridoma antibody; also called parent mAb (32G8H6); 32G8H6 (mAb)
Take B1: the ELISA signal was determined as 3.87 in assay [1]; 3.83 in [2]; 3.71 in [3]; 3.81 in assay [4]; 3.33 in assay [5]; 2.68 in [6]. The ELISA signal came out at 3.78 in assay [7]; 3.8 in assay [8]; 3.73 in assay [9]; 2.98 in assay [10]; 2.32 in assay [11]; 0.086 in [12]. Also, the EC50 (as a rule, the concentration at which the effect is half-maximal) in assay [13] stood at 6.55 ng/mL.
